Test results published in patent US9750814B2, “Polypeptides to inhibit epstein barr viral protein BHRF1 and B cell lymphoma family proteins” (priority 2014, dated 2017).

Key:
[1] = type: physicochemical; conditions: for unfolding behaviour in guanidinium hydrochloride: loss of CD signal at 222 nm
Method: CD spectra were recorded with a Model 420 spectrometer (AVIV Biomedical) or a J-1500 Circular Dichroism Spectrometer (JASCO). Unless stated otherwise, proteins were at 20 μM in PBS and data were collected at 25° C.

Bfl-1 = target: T1, Bfl-1 (Homo sapiens, UniProt Q16548, C4S); test: Bio-layer interferometry (BLI), immobilized Bfl-1; type: binding; parameters: Bfl-1 a.a; made in house; host or cells: E. coli BL21* (DE3); conditions: lower bound in μM
T1 sequence (Q16548 1-153 C4S): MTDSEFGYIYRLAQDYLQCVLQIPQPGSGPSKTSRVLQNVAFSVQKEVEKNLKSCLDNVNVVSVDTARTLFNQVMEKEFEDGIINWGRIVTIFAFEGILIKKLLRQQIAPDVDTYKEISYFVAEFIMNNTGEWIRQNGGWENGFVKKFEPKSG
Source text: (§1) 11-175 (NP_065129.1), Mcl-1 a.a. […] For later BLI analysis, Bcl-B and Bfl-1 were genetically fused to C-terminal maltose-binding-protein with an avi-6his tag for improved solution properties. Codon usage was optimized for E. coli expression. […] The genes for individually-tested designed proteins were assembled from oligos (Hoover and Lubkowski, 2002) and cloned into pET29b (NdeI-XhoI sites) with C-terminal 6his tags for purification from E. coli, or cloned into PETCON (NdeI-XhoI sites; (Fleishman et al., 2011)) for yeast surface expression. Alternative tags were added using PCR methods. Point mutations were made by overlapping PCR (Procko et al., 2013). Error-prone PCR with an average error rate of 1.3 amino acid substitutions per clone used GeneMorph II Random Mutagenesis (Agilent Technologies).
(§2) Purified avi-6his-tagged ligands (20 μM) in reaction buffer (250 mM potassium glutamate, 20 mM Tris-Cl [pH 7.5], 50 mM bicine [pH 8.3], 10 mM ATP, 10 mM MgOAc, 100 μM d-biotin) were enzymatically biotinylated with 150 U/μl BirA (Avidity) at room temperature overnight, followed by purification with NiNTA-agarose and SEC. Biotinylated ligands were stored at 4° C. in 150 mM NaCl, 20 mM Tris-Cl (pH 7.5), 1 mM DTT, 0.02% sodium azide.
(§3) Data were collected on an Octet RED96 (Forte Bio) and processed using the instrument's integrated software. […] Biosensors were dipped in solutions containing the analyte of interest to measure association, and transferred back to empty binding buffer for monitoring dissociation. Kinetic constants were determined from the mathematical fit of a 1:1 binding model.

BHRF1 = BHRF1 (Epstein-Barr virus, UniProt P03182)
Chain of BHRF1 (P03182 1-161): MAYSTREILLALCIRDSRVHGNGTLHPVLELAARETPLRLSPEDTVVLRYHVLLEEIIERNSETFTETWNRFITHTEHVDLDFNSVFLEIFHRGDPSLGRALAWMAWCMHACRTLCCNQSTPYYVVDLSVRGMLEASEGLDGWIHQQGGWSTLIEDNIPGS
Method: Proteins (20 nmol each) were injected in a 200 μl loop in line with a Superdex-75 10/300 column (GE Healthcare) and separated with running buffer (20 mM Tris-Cl pH 7.5, 150 mM NaCl, 1 mM DTT) at room temperature.

Mcl-1 = target: T2, Mcl-1 (Homo sapiens, UniProt Q07820); test: Bio-layer interferometry (BLI), immobilized Mcl-1; type: binding; conditions: BLI; for Kd: lower bound in μM
T2 construct: Mcl-1 a.a; made in house; host or cells: E. coli BL21* (DE3)
T2 sequence (Q07820 172-327): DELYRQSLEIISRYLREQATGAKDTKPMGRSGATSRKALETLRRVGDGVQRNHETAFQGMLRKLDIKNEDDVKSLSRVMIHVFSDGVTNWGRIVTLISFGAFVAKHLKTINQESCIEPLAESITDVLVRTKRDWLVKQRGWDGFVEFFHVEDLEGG
Source text: as §1, §2, §3

[2] = system: mitochondria isolated from Ramos-AW (EBV-positive) and Ramos (EBV-negative) cells; test: Cytochrome c release from isolated mitochondria, Ramos-AW versus Ramos; type: cell-based, human; conditions: 30 min
Method: (§4) Cells (˜10^9) were equilibrated in 5 ml of homogenization buffer (0.25 M sucrose, 1 mM EGTA, 10 mM HEPES/NaOH, 0.5% BSA, pH 7.4, Roche Complete protease inhibitors) for 5 min. Samples were kept on ice or at 4° C. until assayed. Cells were homogenized under N2 pressure (400 psi) in a steel disruption vessel (Parr Instrument Company) for 10 min, then centrifuged (750 g) for 10 min to remove intact cells. Supernatant was centrifuged again (12,000 g) for 12 min to collect mitochondria. The pellet was resuspended in 300 μl wash buffer (0.25 M sucrose, 1 mM EDTA, 10 mM Tris/HCl pH 7.4). Proteins at the indicated concentrations were incubated with mitochondria (25 μg mitochondrial protein based on BCA assay, Sigma) in 50 μl final volume of experimental buffer (125 mM KCl, 10 mM Tris-MOPS pH 7.4, 5 mM glutamate, 2.5 mM malate, 1 mM K-PO4, 10 μM EGTA-Tris pH 7.4) for 30 min at room temperature. Reaction solutions were centrifuged (18,000 g) for 10 min at 4° C. and cytochrome c release was quantified using a Cytochrome c ELISA kit (Life Technologies). Complete cytochrome c release was quantified by treatment with 0.5% Triton-X100.
(§5) Ramos, Ramos-AW, Daudi, Raji, DOHH2, JVM-2, and JVM-13 were grown in RPMI 1640 containing L-glutamine and 25 mM HEPES supplemented with 1% penicillin-streptomycin (GIBCO) and 10% fetal bovine serum (FBS, Invitrogen). […]

[3] = system: mitochondria from six EBV-positive and four EBV-negative cancer lines; test: Cytochrome c release from isolated mitochondria, panel of cancer lines; type: cell-based, human; conditions: 10 μM
Method: as §4, §5

Bcl-B = target: T3, Bcl-B (Homo sapiens, UniProt Q9HD36); test: Bio-layer interferometry (BLI), immobilized Bcl-B; type: binding; conditions: lower bound in μM
T3 construct: Bcl-B a.a; 11-175 (NP_065129.1); made in house; host or cells: E. coli BL21* (DE3)
T3 sequence (Q9HD36 11-175): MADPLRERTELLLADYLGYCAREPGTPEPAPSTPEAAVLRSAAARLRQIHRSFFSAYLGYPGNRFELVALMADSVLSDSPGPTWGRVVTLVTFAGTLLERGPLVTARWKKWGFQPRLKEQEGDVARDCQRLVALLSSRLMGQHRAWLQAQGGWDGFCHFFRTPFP
Source text: as §1, §2, §3

Bcl-2 = target: T4, Bcl-2 (Homo sapiens, UniProt P10415); test: Bio-layer interferometry (BLI), immobilized Bcl-2; type: binding
T4 construct: human Bcl-2 a.a; made in house; host or cells: E. coli BL21* (DE3)
T4 sequence (P10415 1-207): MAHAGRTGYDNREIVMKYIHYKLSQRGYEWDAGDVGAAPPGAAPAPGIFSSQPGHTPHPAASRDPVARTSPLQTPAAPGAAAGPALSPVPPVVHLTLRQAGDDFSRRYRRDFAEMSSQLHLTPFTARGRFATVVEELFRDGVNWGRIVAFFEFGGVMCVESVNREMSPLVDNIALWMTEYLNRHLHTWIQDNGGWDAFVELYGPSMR
Source text: as §1
as §2, with “Biotinylated ligands were stored at 4° C. in 150 mM NaCl, 20 mM Tris-Cl (pH 7.5), 1 mM DTT, 0.02% sodium azide.” left out
Data were collected on an Octet RED96 (Forte Bio) and processed using the instrument's integrated software. […] Kinetic constants were determined from the mathematical fit of a 1:1 binding model.

Bfl-1-dependent MEF line = test: Long-term survival (colony) assay, Bfl-1-dependent MEFs; type: cell-based, mouse; conditions: seven day colony survival, doxycycline-induced expression
Source text: Mouse embryonic fibroblasts were generated from E13-E14.5 embryos derived from CreERT2/Bcl-x^fl/fl/Mcl-I^fl/fl C57BL/6 mice (Kelly et al., 2014) and immortalized (at passage 2-4) with SV40 large T antigen. Retroviral expression constructs in the pMIG vector (Murine Stem Cell Virus-IRES-GFP) expressing each FLAG-tagged pro-survival protein were transiently transfected using LIPOFECTAMINE™ (Invitrogen), into Phoenix ecotropic packaging cells. Filtered virus-containing supernatants were used to infect the MEFs by spin inoculation as previously described (Lee et al., 2008). Cells stably expressing each pro-survival protein were selected by sorting GFP^+ve cells 24 hours after spin inoculation and protein expression verified by Western blotting using an anti-FLAG antibody. Following verification of exogenous pro-survival protein expression, each cell line was treated with 1 μM Tamoxifen (Sigma-Aldrich) to enable deletion of endogenous Mcl-1 and Bcl-xL. Deletion of endogenous Mcl-1 and Bcl-xL was shown by Western blotting using anti-Mcl-1 (Rockland Clone, 600-401-394) and anti-Bcl-xL (BD Transduction Laboratories Clone 44/Bcl-x) antibodies. Cells were maintained in DME Kelso medium supplemented with 10% (v/v) fetal bovine serum, 250 mM L-asparagine and […] 2-mercaptoethanol.
Inducible αMCL1 and αBFL1 constructs were generated in a lentiviral vector described in Aubrey et al. (2015). […]

colon cancer cell lines = test: Long-term survival assay, colon cancer cell lines; type: cell-based, human; conditions: long-term survival assay
Method: Inducible αMCL1 and αBFL1 constructs were generated in a lentiviral vector described in Aubrey et al. (2015). Ligand expression is linked via the T2A peptide to mCherry™ fluorescent reporter protein. […] Viral supernatants were then filtered prior to target cell transduction. […] For infection of MEFs and colon cancer cell lines, equal volume of virus-containing supernatant was added to target cells pre-incubated with 10 ng/μL polybrene, and centrifuged at 2500 rpm for 2 hours at 32° C. Following spin inoculation, cells were then incubated overnight at 37° C. Cells expressing the doxycycline-inducible constructs were then selected by sorting mCherry^+ve cells. MEFs were maintained in DME Kelso medium supplemented with 10% (v/v) FBS, 250 mM L-asparagine and […] 2-mercaptoethanol. Colon cancer cell lines were maintained in DMEM/F-12 supplemented with 10% (v/v) FBS.
MEF and colon cancers were seeded in 6-well tissue culture plates in 2 mL culture media at 150 cells per mL. The next day and every 48 hours following, doxycycline was added at a final concentration of 1 μg/mL to each well, while nothing was added to control wells.

B1: M-CDP02: SEQ ID NO: 29; target Mcl-1 (protein)
chain: ADPKKVLDKAKDQAENRVRELKQELEELYKEARKLDLTQEERRKLEESYIAAMLRAIGDIFNAIMQAKNEADKLKKAGLVNSQQLDELRRRLEELRKEASLKAEDYGREFQEKLEY
**Q.** Which “unfolding behaviour in guanidinium hydrochloride” value [1] does the source give for B1 here?
**A.** unfolded over broad denaturant concentration ranges

B2: X-CDP07: SEQ ID NO: 47; target Bcl-xL (protein)
chain: ADPKKVLDKAKDRAENVVRKLKKELEELYKEARKLDLTQEMRDRIRLAAIAARIAAFGDIFHAIMEALEEARKLKKAGLVNSQQLDELKRRLEELDEEAAQRAEKLGKEFELKLEY
**Q.** Which Kd (Bfl-1) does the source give for B2 here?
**A.** > 50 µM

B3: BbpD04.2: BbpD04.1 with four mutations: I21L, Q79L, I84Q and H104R (protein)
chain: ADWKKVLDKAKDIAENRVRELKQKLEEFYKEAMKLDLTQEMRRKLMLRWIAAMLMAIGDIFNAIRQAKQEADKLKKAGLVNSQQLDELKRRLEELKEEASRKCRDYGREFQLKLEY
**Q.** What does the source list for B3?
**A.** elution by SEC when mixed with BHRF1 (BHRF1; in solution): higher molecular weight (MW) complex; state by SEC after purification from E. coli (BHRF1; protein alone): monodisperse and monomeric

B4: BINDI N62S: BINDI variant with N62S (protein)
chain: ADPKKVLDKAKDQAENRVRELKQKLEELYKEARKLDLTQEMRRKLELRYIAAMLMAIGDIYSAIRQAKQEADKLKKAGLVNSQQLDELKRRLEELKEEASRKARDYGREFQLKLEY
**Q.** For B4, which “change of affinity for Mcl-1 relative to BINDI” value (Mcl-1) is on record?
**A.** diminished six-fold

**Q.** What about the “cytochrome c release, Ramos-AW compared with Ramos mitochondria” value [2] of the same molecule?
**A.** enhanced apoptotic activity against EBV-positive Ramos-AW

**Q.** What about the cytochrome c release ([3]; Raji and JVM-2) of the same molecule?
**A.** low levels of cytochrome c release

**Q.** And the cytochrome c release ([3]; Ramos-AW, Daudi, Granta 519, JVM-13)?
**A.** high cytochrome c release

B5: WINDI: SEQ ID NO: 265; target Bcl-w (protein)
chain: DPKKVFDELKDRAENNVRRLKQKLEELYKEARKKDLTQEEREKLKTKYKTAMQLAALAAEGDIMNALLKARKLHKNGQVNEQQLEELARRLMELAKEAFQKAKDYANEFKYKLEY
**Q.** Which Kd (Mcl-1) does the source give for B5 here?
**A.** > 25 µM

**Q.** What about the Kd (Bcl-B) of the same molecule?
**A.** > 25 µM

**Q.** What about the Kd (Bfl-1) of the same molecule?
**A.** > 25 µM

B6: 2-INDI: SEQ ID NO: 3; target Bcl-2 (protein)
chain: ADPKKVLDKAKDEAENRVRELKQRLEELYKEARKLDLTQEMRQELVDKARAASLQANGDIFYAILRALAEAEKLKKAGLVNSQQLDELKRRLEELAEEARRKAEKLRDEFRLKLEY
**Q.** With B6 as the molecule, how does the “fold weaker affinity for the next tightest binding BCL2 family protein (target Bcl-2)” value (Bcl-2) read?
**A.** > 2,000 fold

**Q.** What about the Kd (Mcl-1) of the same molecule?
**A.** > 75 µM

**Q.** And the Kd (Bcl-B)?
**A.** > 75 µM

**Q.** And the “protein stability relative to the original computational design” value [1]?
**A.** slightly to moderately decreased

**Q.** What about the Kd (Bfl-1) of the same molecule?
**A.** > 75 µM

B7: XINDI: SEQ ID NO: 4; target Bcl-XL (protein)
chain: ADPKKVLDKAKDRAENVVRKLKKELEELYKEARKLDLTQEMRDRIRRTAIAARFQAHGDIFHAIKHAKEEARKLKKAGLVNSQQLDELKRRLRELDEEAEQRAEKLGKEFRLKLEY
**Q.** With B7 as the molecule, how does the Kd (Mcl-1) read?
**A.** > 50 µM

**Q.** And the Kd (Bcl-B)?
**A.** > 50 µM

**Q.** What about the “protein stability relative to the original computational design” value [1] of the same molecule?
**A.** slightly to moderately decreased

**Q.** And the Kd (Bfl-1)?
**A.** > 50 µM

B8: M-CDP05: SEQ ID NO: 32; target Mcl-1 (protein)
chain: ADPKKVLDKAKDQAENRVRELKQKLEELYKEARKLDLTQEERHRLETKALSALLAAIGDILDAIMQALQEAAKLKKAGLVNSQQLDELKRRLEELRKEASRKARDYGREFWLKLDY
**Q.** For B8, which “unfolding behaviour in guanidinium hydrochloride” value [1] is on record?
**A.** unfolded over broad denaturant concentration ranges

B9: FINDI: SEQ ID NO: 6; target Bfl-1 (protein)
chain: ADPKKVLDKAKDQAENRVRELKQKLEELYKEARKLDLTQEKRKKLEVATLGAVLAAHGDILNAIMQAKEEADKLKKAGLVNSQQLDELKRRLEELKEEALRKASDYGNEFHLKRRY
**Q.** Which “protein stability relative to the original computational design” value [1] does the source give for B9 here?
**A.** slightly to moderately decreased

**Q.** And the decrease in survival (Bfl-1-dependent MEF line)?
**A.** 85±6%

**Q.** And the “decrease in RKO cell survival” value (colon cancer cell lines)?
**A.** 63±4%
